The target of test [1] is T1, recombinant human Nectin-1 (human, UniProt Q15223 31-334, limits assumed).
T1 construct: Recombinant protein; construct not described
T1 sequence (looked up): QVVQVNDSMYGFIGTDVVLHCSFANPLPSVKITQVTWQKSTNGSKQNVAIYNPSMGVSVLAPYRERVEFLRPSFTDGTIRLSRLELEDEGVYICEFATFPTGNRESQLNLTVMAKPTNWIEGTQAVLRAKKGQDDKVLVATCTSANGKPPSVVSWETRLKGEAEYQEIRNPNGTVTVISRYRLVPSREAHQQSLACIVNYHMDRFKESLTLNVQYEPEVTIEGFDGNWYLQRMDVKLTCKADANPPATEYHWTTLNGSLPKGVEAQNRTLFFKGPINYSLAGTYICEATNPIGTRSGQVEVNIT
The test is described as follows: ELISA. (In an ELISA, binding on a coated surface is turned into a signal by an enzyme label.)

Test [2] deals with T2, recombinant human Nectin-2 (human, UniProt Q92692 32-360, limits assumed).
T2 construct: Recombinant protein; construct not described
T2 sequence (looked up): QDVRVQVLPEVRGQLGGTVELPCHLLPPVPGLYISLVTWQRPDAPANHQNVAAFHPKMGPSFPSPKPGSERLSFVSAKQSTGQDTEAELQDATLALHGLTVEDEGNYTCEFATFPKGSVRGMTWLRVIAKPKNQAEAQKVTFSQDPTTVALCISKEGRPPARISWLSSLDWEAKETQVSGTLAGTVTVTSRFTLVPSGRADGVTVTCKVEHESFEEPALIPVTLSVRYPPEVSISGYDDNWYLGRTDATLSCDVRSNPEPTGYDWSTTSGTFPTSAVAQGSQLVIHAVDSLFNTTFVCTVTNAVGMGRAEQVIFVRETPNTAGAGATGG
The experiment in a line: ELISA.

The target in test [3] is T3, recombinant human Nectin-3 (human, UniProt Q9NQS3 58-404, limits assumed).
T3 construct: Recombinant protein; construct not described
T3 sequence (Q9NQS3 58-404 limits assumed): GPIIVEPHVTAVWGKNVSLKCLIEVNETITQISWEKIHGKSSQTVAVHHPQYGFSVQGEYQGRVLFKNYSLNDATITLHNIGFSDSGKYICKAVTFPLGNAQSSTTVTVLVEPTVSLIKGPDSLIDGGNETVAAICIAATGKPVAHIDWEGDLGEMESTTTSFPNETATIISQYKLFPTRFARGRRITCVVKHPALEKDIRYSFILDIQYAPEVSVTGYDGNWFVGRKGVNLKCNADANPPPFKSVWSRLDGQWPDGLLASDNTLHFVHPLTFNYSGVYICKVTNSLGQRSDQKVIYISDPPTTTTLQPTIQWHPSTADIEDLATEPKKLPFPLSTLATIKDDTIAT
The test is described as follows: ELISA.

Test [4] addresses T4, recombinant human Nectin-4 protein (human, UniProt Q96NY8 32-349).
T4 construct: Recombinant protein; construct not described
T4 sequence (looked up): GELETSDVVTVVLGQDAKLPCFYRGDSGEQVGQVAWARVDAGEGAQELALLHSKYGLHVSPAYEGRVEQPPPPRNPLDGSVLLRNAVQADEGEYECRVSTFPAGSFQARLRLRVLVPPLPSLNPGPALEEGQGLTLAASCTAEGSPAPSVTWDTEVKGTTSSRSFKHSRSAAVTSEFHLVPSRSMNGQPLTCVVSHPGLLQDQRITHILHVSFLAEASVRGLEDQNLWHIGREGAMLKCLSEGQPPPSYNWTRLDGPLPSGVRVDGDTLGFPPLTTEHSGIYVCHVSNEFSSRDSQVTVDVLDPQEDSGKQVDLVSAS
The experiment in a line: ELISA on recombinant protein.

The target of test [5] is T5, recombinant rat Nectin-4 protein (rat, UniProt D3ZET1 31-348).
T5 construct: Recombinant protein; construct not described
T5 sequence: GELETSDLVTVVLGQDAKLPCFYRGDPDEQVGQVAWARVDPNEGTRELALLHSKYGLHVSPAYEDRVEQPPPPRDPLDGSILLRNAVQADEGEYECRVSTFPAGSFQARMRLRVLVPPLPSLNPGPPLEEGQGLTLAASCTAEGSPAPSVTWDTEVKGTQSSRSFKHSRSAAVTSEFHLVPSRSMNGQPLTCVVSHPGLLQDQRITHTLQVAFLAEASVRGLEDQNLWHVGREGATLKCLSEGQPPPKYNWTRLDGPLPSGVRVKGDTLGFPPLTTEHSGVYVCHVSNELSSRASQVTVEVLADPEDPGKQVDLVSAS
The experiment in a line: ELISA on recombinant protein.

Test [6] has as its target T6, recombinant cynomolgus monkey Nectin-4 protein (cynomolgus monkey, UniProt A0A2K5WES1 32-349).
T6 construct: Recombinant protein; construct not described; also called cynomolgus Nectin-4
T6 sequence: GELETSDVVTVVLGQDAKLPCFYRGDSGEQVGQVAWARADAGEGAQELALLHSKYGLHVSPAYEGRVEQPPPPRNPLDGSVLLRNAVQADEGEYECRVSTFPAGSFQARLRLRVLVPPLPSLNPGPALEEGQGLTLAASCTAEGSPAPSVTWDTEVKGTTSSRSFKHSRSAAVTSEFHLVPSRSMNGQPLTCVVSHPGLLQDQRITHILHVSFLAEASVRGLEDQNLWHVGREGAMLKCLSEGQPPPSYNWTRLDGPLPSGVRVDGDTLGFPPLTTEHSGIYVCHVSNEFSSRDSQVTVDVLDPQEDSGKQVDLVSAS
The experiment in a line: ELISA on recombinant protein.

For test [7], the target named is T4, recombinant human Nectin-4 protein. The test is described as follows: BLI, antibody as loading sample. Background: BLI is a label-free optical method that tracks binding on a fibre tip over time.
Test [8] addresses T5, recombinant rat Nectin-4 protein. The test is described as follows: BLI, antibody as loading sample.
In test [9] the target is T6, recombinant cynomolgus monkey Nectin-4 …. The test is described as follows: BLI, antibody as loading sample.

2 molecules from patent EP4796129A1 (Celltrion, Inc., dated 2025) can be followed below.

B1: Enfortumab-PBX-7016 ADC (antibody, V domains shown)
VH: EVQLVESGGGLVQPGGSLRLSCAASGFTFSSYNMNWVRQAPGKGLEWVSYISSSSSTIYYADSVKGRFTISRDNAKNSLSLQMNSLRDEDTAVYYCARAYYYGMDVWGQGTTVTVSS
VL: DIQMTQSPSSVSASVGDRVTITCRASQGISGWLAWYQQKPGKAPKFLIYAASTLQSGVPSRFSGSGSGTDFTLTISSLQPEDFATYYCQQANSFPPTFGGGTKVEIKR
modifications: mc-GGFG-PBX-7016 linker-payload on cysteine thiols freed by TCEP reduction of the disulfides; positions not given
Turning to B1, the binding result in test [1], in [2] and in test [3] was “no binding” each time. The EC50 (in general, the midpoint of the concentration-response curve) is 8.31 ng/mL in [4], 9.88 ng/mL in test [5] and 7.94 ng/mL in [6]. Besides, the results for the Kd in test [7], in test [8] and in test [9] were 2.89 nM, 3.2 nM and 1.78 nM, respectively. The Response in [7] is 0.621; in test [8] it was 0.511; in test [9], 0.643.

B2: Enfortumab mAb (antibody, human IgG1, kappa, V domains shown)
VH: EVQLVESGGGLVQPGGSLRLSCAASGFTFSSYNMNWVRQAPGKGLEWVSYISSSSSTIYYADSVKGRFTISRDNAKNSLSLQMNSLRDEDTAVYYCARAYYYGMDVWGQGTTVTVSS
VL: DIQMTQSPSSVSASVGDRVTITCRASQGISGWLAWYQQKPGKAPKFLIYAASTLQSGVPSRFSGSGSGTDFTLTISSLQPEDFATYYCQQANSFPPTFGGGTKVEIKR
notes: Naked antibody (source: Abinvivo); also called anti-Nectin-4 antibody (Enfortumab); anti-Nectin4 mAb
As for B2, the binding result in test [1], in [2] and in test [3] was “no binding” each time. Moreover, the EC50 turned out to be 8.38 ng/mL in [4], 9.63 ng/mL in [5] and 8.43 ng/mL in test [6]. The Kd (commonly a measure of binding affinity in units of concentration) in test [7] stood at 5.02 nM; in test [8] it was 3.96 nM; in test [9], 6.05 nM. Besides, the Response in test [7] is 0.681; in [8] it was 0.606; in [9], 0.67. Moreover, the koff (in general, the rate constant with which the complex falls apart) in test [7] was found to be 0.00136 s⁻¹; in test [8] it was 0.00149 s⁻¹; in test [9] it was 0.00191 s⁻¹. The kon (in general, the second-order rate constant of association) in test [7] amounted to 271000 M⁻¹ s⁻¹; in [8], 376000 M⁻¹ s⁻¹; in test [9], 316000 M⁻¹ s⁻¹.
